Among the data in patent publication US20030073628A1 are cGMP Level (pmol/well), T84 cells, 1 micromolar peptide for 30 minutes values, retold here.

Positions of bridges follow the written chain, without caps; N, C: chain ends. No end group written: not given here.

In the test the target is guanylate cyclase receptor (on human T84 colon carcinoma cells) (human). In words: cell-based or functional assay.
Consider NEDCELCVNVACTGCL (disulfide 4-12, 7-15) [[Glu^2]-UG (SP303)], for which the cGMP Level (pmol/well), T84 cells, 1 micromolar peptide for 30 minutes came to 195 pmol/well.
With NEECELCVNVACTGCL (disulfide 4-12, 7-15) [[Glu^2, Glu3]-UG (SP302)] the figure was 225 pmol/well.
With NDDCELCVNVACTGCL (disulfide 4-12, 7-15) [human uroguanylin, bicyclo [4,12; 7,15] (SP301)] the figure was 205 pmol/well.
Then ECELCVNVACTGCL (disulfide 2-10, 5-13) [SP316], with 275 pmol/well; and NDECELCVNVACTGCL (disulfide 4-12, 7-15) [[Glu^3]-UG (SP304)], with 315 pmol/well.
